Peptide text beside a SMILES is read from it. * marks the point of attachment. Cbz = O=C(OCc1ccccc1)*
How the values were obtained:
[1] = tested on: 293, NT2, and 293-Tet-On cell lines; experiment: Proteasome inhibition assay, MG132-induced cell death; assay type: cell-based, human; conditions: 50 μM MG132, 24 hrs
Description: Proteasome inhibition assays were carried out in stably transfected cell lines using MG132 (Z-Leu-Leu-Leucinal)—a potent, cell permeable inhibitor of the 26S proteasomal complex (Calbiochem, San Diego, Calif.). The MG132 concentration in all experiments (50 μM) was sufficient to insure 100% cell death of all 293, NT2, and 293-Tet-On cell lines in 24 hrs.
To confirm that 293 and NT2 cultures undergo apoptosis within 24 hrs post treatment with 50 μM MG132, cells were assayed for poly(ADP-ribose) polymerase (PARP) cleavage by caspase-3. The 293 and NT2cultures were grown in 100 mm dishes to ˜90% confluence and passed at equal density into a six well tray. At 70-80% confluence, wells were treated with 50 μM MG132 in DMEM and harvested for proteins at 0.5 hrs, 1 hr, 2 hrs, 4 hrs, 6 hrs, and 24 hrs after treatment. The PARP cleavage products were resolved on 4% SDS PAGE gels. The Western blots were incubated with an anti-PARP (BIOMOL Research Laboratories) primary antibody diluted 1:2000 in 3% BSA, and a HRP conjugated goat anti-mouse secondary antibody (Amersham) diluted 1:2500 in 3% BSA.

293 cells = experiment: Viability of PIRP expressing cells during MG132-induced cellular stress and apoptosis (Trypan Blue exclusion); assay type: cell-based, human; conditions: 293 control cells = 100%, not statistically significant, n=2
Description: FIGS. 6A-6C are bar graphs showing growth factor activity associated with the PIRP-M and PIRP-L proteins. […] Colony number was determined after calcium phosphate transfection of 293 cells and G418 selection. The control plasmid was pBSII vector comprising the […] but no mammalian selectable marker. The PLP/DM20-GFP Pro-constructs are missing the CMV promoter and the PLP/DM20-GFP M1L vectors contain the Met^1 mutation and are unable to translate the full-length proteolipid proteins (see description of FIGS. 2B-2C). Increase in colony number following PIRP expression was highly stastically significant (Student's t-test). […] Pools of 293 cells derived from the transfectants (see above) were grown in toxic (50 μM) and subtoxic (25 μM) concentrations of MG132 for 24 hrs. Viable cells were identified using Trypan Blue exclusion. […] Subconfluent 293 cultures were treated with CM for 48 hrs and 72 hrs. Total and viable cell numbers were determined using Trypan Blue exclusion and expressed as % of control (293 cells treated with 293 CM) cell number.
Although PIRP expression increased colony number, the biochemical mechanism of this response has yet to be defined. […] After 24 hrs, viable cells were counted (Trypan Blue exclusion) (FIG. 6B).

human 293 cell line = experiment: Colony formation assay after transfection and G418 selection; assay type: cell-based; conditions: 293 cells
Description: Transfections were performed in 100×20 mm dishes using the Profection® Mammalian Transfection System—a calcium phosphate transfection kit (Promega, Madison, Wis.). Cells grown to 50-70% confluence were fed 3 hrs prior to addition of the calcium phosphate/DNA mixture. A standard transfection assay contained 15 μg of plasmid DNA, while double transfections were done with 10 μg of each plasmid (20 μg total). The culture medium was removed 24 hrs post transfection and cells were processed for microscopic analysis or passed for G418 or Hygromycin B selection 48 hrs post transfection.
All constitutive expression cell lines were isolated by selection with the G418 antibiotic. 24 hrs after cell passage (see above), transfected 293 and NT2 cells were treated with 500 μg/mL G418 (Invitrogen Life Technologies) in DMEM. The selection medium was changed every second day for 2-2.5 weeks, during which the majority of cells detach and G418 resistant colonies emerge. Depending upon the number and density of colonies, surviving cells were grown for 3-5 days in G418-free medium prior to subcloning. Once colonies reached the appropriate size, each plate was briefly examined for fluorescence, and colonies with the lowest number of nonfluorescent, contaminating cells were marked for subcloning. […]

Molecule: CC(C)C[C@@H](C=O)NC(=O)[C@H](CC(C)C)NC(=O)[C@H](CC(C)C)NC(=O)OCc1ccccc1 [MG132, Z-Leu-Leu-Leucinal] (Cbz-Leu-Leu-Leu-aldehyde)
- cell death [1]: 100%

Molecule: PIRP-L: ~7 kDa polypeptide translated from Met234 of PLP/DM20 mRNA via IRES; SEQ ID NO:8 (MTFHLFIAAFVGAAATLVSLLTFMIAATYNFAVLKLMGRGTKF; listed as Homo sapiens)
- cellular viability (viable cell number), % of control cell lines (293 cells; MG132-treated, 25 μM and 50 μM, 24 hrs): small increase in viability
- cellular viability (viable cell number), % of control cell lines (293 cells; untreated cells): not detected
- colony count in PIRP-L transfectants compared to PIRP-M transfectants (human 293 cell line; p=0.02): increased colony count

B1: PIRP-M: ~10 kDa polypeptide translated from Met205 of PLP/DM20 mRNA via IRES; SEQ ID NO:6 (protein, listed as Homo sapiens)
chain: MYGVLPWNAFPGKVCGSNLLSICKTAEFQMTFHLFIAAFVGAAATLVSLLTFMIAATYNFAVLKLMGRGTKF
- increase in colony number over controls (human 293 cell line; calcium phosphate transfection, G418 selection, colonies grown 2 weeks, vs pBSII PIRP-M control DNA lacking G418 resistance): 600-700 fold
